Columns and labels:
[1] = target: T1, cynomolgus PD-L1-His (Acro Biosystems, PD1-C52H4) (cynomolgus, UniProt G7PSE7 19-239); assay: SPR as in Example 3.2, mAb on Protein A chip
T1 construct: Bought; also called Cyno PD-L1-His
Method: (§1) Briefly, the anti-PD-L1 mAbs, diluted in HBS-EP buffer (GE Healthcare, BR100188) at 2 μg/ml, were injected individually on flows cell 2, 3 and 4 of a Protein A chip (GE Healthcare, 29127556) at 30 μl/min to achieve a final response of approximately 110 RU. The recombinant human, cynomolgus and mouse PD-L1-His antigens, diluted in HBS-EP buffer, were injected on flow cell 1, 2, 3 or 4 as appropriate at a concentration range of 81 nM to 0.037 nM with 3-fold dilutions for 4 min at 75 μl/min and then allowed to dissociate in buffer for 10 min. Regeneration was achieved by injecting 10 mM glycine-HCL pH1.5 (GE Healthcare, Human Antibody Capture Kit, BR00356) for 30 sec at a rate of 30 μl/min. Subtracted data (flow cell 2-flow cell 1, flow cell 3-flow cell 1, or flow cell 4-flow cell 1) were analysed using BIAevaluation 3.2 Software (GE Healthcare) to identify binding using the model 1:1 binding with mass transfer, with refractive index (RI) constant 0. To determine the affinities of the mouse PD-L1 binding curves, the Rmax of the corresponding human binding profiles was used.

[2] = target: T2, biotinylated human PD-L1-Avi-His (Acro Biosystems, PD1-H82E5) (human, UniProt Q9NZQ7 19-238, biotinylated); assay: SPR as in Example 3.2, mAb on Protein A chip
T2 construct: Bought
Method: as §1

[3] = target: T3, PD-L1 on PD-L1 cells (Promega, CS178103; PD1/PD-L1 Blockade Bioassay J1250/J1255) (UniProt Q9NZQ7 19-290); assay: cell-based or functional assay
Cyno PD-L1-rCD4-His [4] = target: T4, Cyno PD-L1-rCD4-His (cynomolgus); assay: SPR, IgG1 from culture supernatant
T4 construct: The entry as printed begins with the signal peptide; also called cynomolgus PD-L1-rCD4-His

human PD-L1-rCD4-His [5] = target: T5, human PD-L1-rCD4-His (human); assay: SPR, IgG1 from culture supernatant
T5 construct: Human PD-L1 fused to the monomeric C-terminal rat CD4 domains 3 and 4 tag and His tag; made in HEK293; The entry as printed begins with the signal peptide (MRIF...); also called hPD-L1-rCD4-His; hu-PD-L1-rCD4-His

Cyno PD-L1-rCD4-His [6] = target: T4, Cyno PD-L1-rCD4-His; assay: SPR; G1/929_01_A02 on PD-L1-rCD4-His (Table 8) against G1AA/E12v2 on PD-L1-His (Table 9)
human PD-L1-rCD4-His [7] = target: T5, human PD-L1-rCD4-His; assay: as above
[8] = target: T2, biotinylated human PD-L1-Avi-His (Acro …); assay: SPR; end of the range tied to this clone by the KD values of Table 4
Method: as §1

[9] = target: mouse PD-L1 on LK35.2 cells (LK35.2 mPD-L1) (mouse, UniProt Q9EP73 19-290); assay: cell-based or functional assay
[10] = target: T6, mouse PD-L1-His (Acro Biosystems, PD1-M5220) (mouse, UniProt Q9EP73 19-238); assay: SPR (Biacore T200), mAb on Protein A chip, antigen 81-0.037 nM; Rmax of the human profile used
T6 construct: Bought; also called recombinant mouse PD-L1
Method: as §1

[11] = target: T1, cynomolgus PD-L1-His (Acro Biosystems, …); assay: SPR (Biacore T200), mAb on Protein A chip, antigen 81-0.037 nM
Method: as §1

[12] = target: T2, biotinylated human PD-L1-Avi-His (Acro …); assay: as above
Method: as §1

[13] = target: T7, human PD-L1 on HEK293 cells (HEK293.hPD-L1) (human, UniProt Q9NZQ7 19-290); assay: flow cytometry on HEK293 cells expressing human PD-L1, GMFI against concentration
T7 construct: Flp-In T-REx 293 cells stably overexpressing human PD-L1; also called cell surface human PD-L1
Method: Non-specific binding was also assessed by testing binding to HEK293 parental cells lacking human PD-L1 (Flp-In T-Rex 293 cell line, Life Technologies, R780-07).
HEK293 and HEK293.hPD-L1 suspensions were prepared in PBS containing 0.5% BSA (Sigma. A7906) and seeded at 1×10⁵ cell/well in 100 μl in round bottomed 96-well plates (VWR, 734-1797). […] The washed cells were resuspended in the diluted antibody mixture, incubated at 4° C. for 30 minutes, and then washed once in PBS. 100 μl/well of secondary antibody (Alexa Fluor 647-AffiniPure Goat Anti-Human IgG, F(ab′)2 Fragment Specific, Stratech Scientific, 109-605-006-JIR) diluted 1:1000 in PBS was then added, the cells/antibody mixture was incubated for 20 mins at 4° C., and the cells were then washed again with PBS and resuspended in 100 μl of PBS containing 7AAD (1:1000, Biotium, 40043) before being analysed using a Canto II flow cytometer (BD Bioscience). Dead cells were excluded and the fluorescence in the FITC channel (488 nm/530/30) was measured. The geometric mean fluorescence intensity (GMFI) values were plotted against the log concentration of antibody and the resulting curves were fitted using the log (agonist) versus response equation in GraphPad Prism.

[14] = target: T3, PD-L1 on PD-L1 cells (Promega, …); assay: cell-based or functional assay; remark: listed apart in the source

T4 sequence (chain, as listed by the source limits assumed): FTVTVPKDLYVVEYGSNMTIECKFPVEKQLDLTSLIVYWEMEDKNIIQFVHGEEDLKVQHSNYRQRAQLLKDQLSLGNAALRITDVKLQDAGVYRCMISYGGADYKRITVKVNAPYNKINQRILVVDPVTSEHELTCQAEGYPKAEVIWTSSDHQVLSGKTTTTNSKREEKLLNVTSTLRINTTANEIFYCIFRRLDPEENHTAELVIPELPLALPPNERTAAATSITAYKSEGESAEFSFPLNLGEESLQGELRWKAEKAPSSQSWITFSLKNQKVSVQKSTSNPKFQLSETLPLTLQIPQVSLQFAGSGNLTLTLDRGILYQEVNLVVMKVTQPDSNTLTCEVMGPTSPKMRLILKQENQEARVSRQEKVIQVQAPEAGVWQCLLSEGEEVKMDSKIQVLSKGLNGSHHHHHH
T2 sequence (Q9NZQ7 19-238 limits assumed): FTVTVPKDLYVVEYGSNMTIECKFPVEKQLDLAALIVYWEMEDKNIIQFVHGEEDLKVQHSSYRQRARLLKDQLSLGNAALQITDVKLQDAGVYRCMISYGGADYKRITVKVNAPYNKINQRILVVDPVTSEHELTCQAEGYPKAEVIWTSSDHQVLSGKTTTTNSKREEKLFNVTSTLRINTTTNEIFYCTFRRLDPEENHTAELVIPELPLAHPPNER
T6 sequence (Q9EP73 19-238 limits assumed): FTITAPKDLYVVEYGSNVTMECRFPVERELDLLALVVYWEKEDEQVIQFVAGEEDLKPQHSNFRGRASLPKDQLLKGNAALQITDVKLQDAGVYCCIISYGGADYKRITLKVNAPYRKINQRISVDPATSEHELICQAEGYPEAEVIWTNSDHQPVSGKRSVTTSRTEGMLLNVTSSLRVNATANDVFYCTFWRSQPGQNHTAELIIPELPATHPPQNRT
mouse PD-L1 on LK35.2 cells (LK35.2 mPD-L1), sequence (Q9EP73 19-290): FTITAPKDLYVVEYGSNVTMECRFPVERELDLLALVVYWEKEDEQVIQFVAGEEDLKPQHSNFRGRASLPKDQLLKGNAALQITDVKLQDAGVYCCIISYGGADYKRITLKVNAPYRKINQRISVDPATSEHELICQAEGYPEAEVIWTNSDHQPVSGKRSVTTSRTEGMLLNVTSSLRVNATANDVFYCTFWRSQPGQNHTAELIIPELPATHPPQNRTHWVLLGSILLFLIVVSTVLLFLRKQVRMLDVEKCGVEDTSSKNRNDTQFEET
T3 sequence (Q9NZQ7 19-290): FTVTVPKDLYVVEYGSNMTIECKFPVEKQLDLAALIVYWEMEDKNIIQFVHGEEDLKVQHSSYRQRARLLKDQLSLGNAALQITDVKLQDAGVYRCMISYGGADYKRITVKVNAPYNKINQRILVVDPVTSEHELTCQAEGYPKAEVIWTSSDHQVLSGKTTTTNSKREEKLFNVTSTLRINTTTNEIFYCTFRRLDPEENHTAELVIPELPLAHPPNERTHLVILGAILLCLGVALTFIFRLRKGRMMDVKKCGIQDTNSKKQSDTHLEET
T7 sequence (Q9NZQ7 19-290): as above
T5 sequence (chain, as listed by the source limits assumed): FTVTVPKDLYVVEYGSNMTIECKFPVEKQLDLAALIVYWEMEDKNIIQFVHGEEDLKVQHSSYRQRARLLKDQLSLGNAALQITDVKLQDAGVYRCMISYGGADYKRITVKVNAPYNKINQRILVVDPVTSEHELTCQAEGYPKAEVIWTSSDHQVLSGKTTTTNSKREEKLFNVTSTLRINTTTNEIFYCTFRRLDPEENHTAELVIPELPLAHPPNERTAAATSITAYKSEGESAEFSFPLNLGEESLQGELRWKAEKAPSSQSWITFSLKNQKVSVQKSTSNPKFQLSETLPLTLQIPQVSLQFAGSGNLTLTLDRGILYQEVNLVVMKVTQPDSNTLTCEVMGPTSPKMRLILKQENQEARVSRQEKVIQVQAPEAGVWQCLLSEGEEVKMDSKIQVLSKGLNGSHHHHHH
T1 sequence (G7PSE7 entry or part of it): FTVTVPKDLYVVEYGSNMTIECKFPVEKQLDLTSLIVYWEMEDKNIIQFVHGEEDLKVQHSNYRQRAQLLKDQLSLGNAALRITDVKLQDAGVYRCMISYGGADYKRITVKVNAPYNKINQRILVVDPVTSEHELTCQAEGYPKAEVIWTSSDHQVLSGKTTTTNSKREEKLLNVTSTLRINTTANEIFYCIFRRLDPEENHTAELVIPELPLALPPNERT

Binder	Kd [1]	Kd [2]	Kd (Cyno PD-L1-rCD4-His [4])	Kd (human PD-L1-rCD4-His [5])	EC50 (nM), mPD-L1 DO11.10 T Cell Activation Assay (IL-2 release) [9]	Emax (pg/ml), mPD-L1 DO11.10 T Cell Activation Assay (IL-2 release) [9]	Kd [10]	Kd [11]	Kd [12]	EC50 [13]	IC50 (nM), PD1/PD-L1 Blockade Bioassay [14]	other results
G1/280_02_G02 (antibody, human IgG1, V domains shown) VH: EVQLVQSGAEVKRPGASVKVSCKASGYTFTSYGISWVRQAPGQGLEWMGWISAYNGNTNYAQKLQGRVTMTTDTSTSTAYMELRSLRSDDTAVYYCARDLFPTIFGVSYYYYWGQGTLVTVSS VL: QSALTQPASVSGSPGQSITISCTGTSSDVGGYNSVSWYQQFPGKAPKLMIFEVTNRPSGVSDRFSGSKSDNTASLTISGLQAEDEAEYYCSSFKRGSTLVVFG	–	–	–	–	–	–	–	–	–	–	–	half maximal effective concentration (EC50), dose-response co-culture reporter assay (luciferase) [3]: 4200 pM
G1/929_01_A02 (antibody, human IgG1, V domains shown, IgG1; The heavy chain as printed has T28) VH: EVQLVQSGAEVKRPGASVKVSCKASGYTFTSYGISWVRQAPGQGLEWMGWISAYSGGTNYAQKLQGRVTMTTDTSTSTAYMELRSLRSDDTAVYYCARDLFPTIFGVSYYYYWGQGTLVTVSS VL: DIQMTQSPSTLSASVRDRVIITCRASQSIGNRLAWYQHKPGKAPKLLIYEASTSETGVPSRFSGSGSGTDFTLTISSLQPEDFATYYCQQSYSTPYTFGQGTKLEIKR	–	–	3640 pM	3070 pM	–	–	–	–	–	–	–	fold lower affinity than G1AA/E12v2 (Cyno PD-L1-rCD4-His [6]): > 10 fold; fold lower affinity than G1AA/E12v2 (human PD-L1-rCD4-His [7]): > 10 fold
G1/887_04_G12 (antibody, human IgG1, V domains shown, IgG1 without LALA, kappa light chain) VH: EVQLVQSGAEVKRPGASVKVSCKASGYTFTSYGISWVRQAPGQGLEWMGWISAYNSNTNYAQKLQGRVTMTTDTSTSTAYMELRSLRSDDTAVYYCARDLFPTIFGVSYYYYWGQGTLVTVSS VL: DIQMTQSPSTLSASVGDRVTITCRASQSISGRLAWYQQKPGKAPNLLIYEASNLESGVPSRFSGSGSGTEFTLTISSLQPEDFATYYCQQSYSWPRTFGQGTKVEIKR	–	–	500 pM	360 pM	2.71 nM	1910 pg/mL	225000 pM	450 pM	390 pM	270 pM	0.33 nM	–
G1/887_04_E12 (antibody, human IgG1, V domains shown, IgG1 without LALA, kappa light chain; proline at Kabat position 28 of VH) VH: EVQLVQSGAEVKRPGASVKVSCKASGYPFTSYGISWVRQAPGQGLEWMGWISAYNSNTNYAQKLQGRVTMTTDTSTSTAYMELRSLRSDDTAVYYCARDLFPTIFGVSYYYYWGQGTLVTVSS VL: DIQMTQSPSTLSASVRDRVIITCRASQSIGNRLAWYQHKPGKAPKLLIYEASTSETGVPSRFSGSGSGTDFTLTISSLQPEDFATYYCQQSYSTPYTFGQGTKLEIKR	–	–	250 pM	210 pM	1.02 nM	1970 pg/mL	38000 pM	280 pM	230 pM	260 pM	0.35 nM	fold higher binding affinity than G1AA/280_02_G02_NS [8]: 1.8 to 4.8 fold
G1AA/280_02_G02_NS (antibody, human IgG1, L234A L235A, also called G1AA/280_2_G02_NS) heavy: not shown light: QSALTQPASVSGSPGQSITISCTGTSSDVGGYNSVSWYQQFPGKAPKLMIFEVTNRPSGVSDRFSGSKSDNTASLTISGLQAEDEAEYYCSSFKRGSTLVVFGGGTKLTVLGQPAAAPSVTLFPPSSEELQANKATLVCLISDFYPGAVTVAWKADSSPVKAGVETTTPSKQSNNKYAASSYLSLTPEQWKSHRSYSCQVTHEGSTVEKTVAPTECS	–	–	–	–	–	–	137000 pM	1320 pM	1100 pM	–	–	–

Second part, led by results:

Kd [1]	Kd [2]	Kd (Cyno PD-L1-rCD4-His [4])	Kd (human PD-L1-rCD4-His [5])	EC50 (nM), mPD-L1 DO11.10 T Cell Activation Assay (IL-2 release) [9]	Emax (pg/ml), mPD-L1 DO11.10 T Cell Activation Assay (IL-2 release) [9]	Kd [10]	Kd [11]	Kd [12]	EC50 [13]	IC50 (nM), PD1/PD-L1 Blockade Bioassay [14]	Binder	other results
890 pM	500 pM	–	–	–	–	–	–	–	–	–	G1AA/E05v2 (antibody, human IgG1, kappa, L234A L235A, IgG1 with LALA, kappa light chain) heavy: not shown light: DIQMTQSPSTLSASVGDRVTITCRASQSISGRLAWYQQKPGKAPNLLIYEASNLESGVPSRFSGSGSGTEFTLTISSLQPEDFATYYCQQSYSTPRVTFGQGTKVEIKRTVAAPSVFIFPPSDEQLKSGTASVVCLLNNFYPREAKVQWKVDNALQSGNSQESVTEQDSKDSTYSLSSTLTLSKADYEKHKVYACEVTHQGLSSPVTKSFNRGEC	–
750 pM	440 pM	–	–	–	–	–	–	–	–	–	G1AA/G12v2 (antibody, human IgG1, kappa, L234A L235A, IgG1 with LALA, kappa light chain) heavy: not shown light: DIQMTQSPSTLSASVGDRVTITCRASQSISGRLAWYQQKPGKAPNLLIYEASNLESGVPSRFSGSGSGTEFTLTISSLQPEDFATYYCQQSYSWPRTFGQGTKVEIKRTVAAPSVFIFPPSDEQLKSGTASVVCLLNNFYPREAKVQWKVDNALQSGNSQESVTEQDSKDSTYSLSSTLTLSKADYEKHKVYACEVTHQGLSSPVTKSFNRGEC	–
370 pM	210 pM	–	–	–	–	–	–	–	–	–	G1AA/E12v2 (antibody, human IgG1, kappa, L234A L235A, V domains shown, IgG1 with LALA, kappa light chain; SGGT at 54-57 and proline at Kabat 28 of VH) VH: EVQLVQSGAEVKRPGASVKVSCKASGYPFTSYGISWVRQAPGQGLEWMGWISAYSGGTNYAQKLQGRVTMTTDTSTSTAYMELRSLRSDDTAVYYCARDLFPTIFGVSYYYYWGQGTLVTVSS VL: DIQMTQSPSTLSASVRDRVIITCRASQSIGNRLAWYQHKPGKAPKLLIYEASTSETGVPSRFSGSGSGTDFTLTISSLQPEDFATYYCQQSYSTPYTFGQGTKLEIKR	–
–	–	590 pM	480 pM	4.37 nM	2110 pg/mL	223000 pM	490 pM	600 pM	290 pM	0.36 nM	G1/894_08_E05 (antibody, human IgG1, V domains shown, IgG1 without LALA, kappa light chain; also called G1/894_8_E05) VH: EVQLVQSGAEVKRPGASVKVSCKASGYTFTSYGISWVRQAPGQGLEWMGWISAYNSNTNYAQKLQGRVTMTTDTSTSTAYMELRSLRSDDTAVYYCARDLFPTIFGVSYYYYWGQGTLVTVSS VL: DIQMTQSPSTLSASVGDRVTITCRASQSISGRLAWYQQKPGKAPNLLIYEASNLESGVPSRFSGSGSGTEFTLTISSLQPEDFATYYCQQSYSTPRVTFGQGTKVEIKR	fold higher binding affinity than G1AA/280_02_G02_NS [8]: 1.8 to 4.8 fold
2450 pM	1340 pM	–	–	–	–	–	–	–	–	–	G1AA/lambdav3 (antibody, human IgG1, L234A L235A, V domains shown, IgG1 with LALA, lambda light chain; also called G1AA/lamdav3) VH: EVQLVQSGAEVKRPGASVKVSCKASGYTFTSYGISWVRQAPGQGLEWMGWISAYSGGTNYAQKLQGRVTMTTDTSTSTAYMELRSLRSDDTAVYYCARDLFPTIFGVSYYYYWGQGTLVTVSS VL: QSALTQPASVSGSPGQSITISCTGTSSDVGGYNYVSWYQQFPGKAPKLMIFEVTNRPSGVSDRFSGSKSDNTASLTISGLQAEDEAEYYCSSFKRGSTLVVFG	–

From patent publication US20250270324A1 (INVOX PHARMA, published 2025)
